Entries after “also recorded” stand apart in the source; their conditions may differ.
How the values were obtained:
[1] = Safety factor calculation (cynomolgus monkey vs proposed human starting dose); design: species or system cynomolgus monkeys; conditions: Planned Phase Ia starting dose 1 mg/kg
Procedure: Safety Factor Calculation. Safety factor was calculated for Dose, AUC, Cmax as the ratio at the highest non-severely toxic dose (HNSTD) observed in the single or repeat-dose safety study to the proposed phase I starting dose. The equations are:
Safety factor (SF)Dose=DoseCyno/DoseHuman
SFCmax=(Cmax-Cyno)/(Cmax-Human)
For body surface area calculation: The body weight to surface area index is 12 kg/m^2 for cynomolgus monkeys and 37.5 kg/m^2 for humans.

HGF = experiment: Phase I study: serum HGF levels by ELISA; assay type: in vivo, humans
Procedure: (§1) Pre- and post-dose serum is collected for evaluation of pharmacodynamic (PD) biomarkers that could be affected by inhibition of Met signaling. In addition, archival tissue is obtained for exploratory diagnostic assessments.
Serum HGF levels were determined using ELISA. […] For patient 12007, HGF expression increased to baseline levels in subsequent cycles. For patient 11009, HGF levels decreased by 70% post drug treatment and remained low for the duration of the study.

[2] = Repeat-dose safety study in cynomolgus monkeys; assay type: in vivo; conditions: GLP toxicology study
Text: Repeat-dose safety study.

KP4 xenograft = experiment: PK/PD model of anti-tumor efficacy in KP4 xenograft mice (MTC); conditions: individual MTC values (n=177) KP4 mice
Procedure: PK parameter estimates were used as a forcing function to model the pharmacodynamic (PD) endpoint of tumor progression (PD) in KP4 xenograft mice.
Tumor measurements were taken via with calipers, and mice entered the study with tumor volumes of approximately 200 mm^3. Study data up to 21 days from a total of 177 KP4 mice were used in the modeling analysis. Tumor volumes (mm^3) were converted to mass (mg) assuming 1 mm^3=1 mg tumor tissue. A mixed effects PK/pharmacodynamic (PD) model describing anti-tumor efficacy in KP4 xenograft mice was fit to the tumor data using NONMEM software (Double Precision, version V, level 1.0 UCSF, San Francisco Calif.).
MTC is calculated from the differential equation describing tumor mass where (dTM(t)/dt=0)

[3] = PK study, single IV bolus dose in nude mice; assay type: in vivo
Procedure: (§2) PK studies. PK studies were conducted in mice, rats, and cynomolgus monkeys.
The expected serum concentration at the time of serum sample collection was estimated based on PK parameters determined in the PK study in non-tumor bearing mice (described above). […] These PK parameters were used to estimate serum concentration by WinNonlin Enterprise Version 5.0.1 (Pharsight Corp., Mountain View, Calif.) for doses tested in IV infusion study.
Pharmacokinetic Assays for MetMAb in Mouse Serum and Rat Serum. […] A direct ELISA assay was developed for quantification of MetMAb in mouse serum and Sprague-Dawley rat serum. Plates were coated with human c-Met-Fc fusion protein to which samples, standards, and dosing solutions were added. Goat anti-human F(Ab′)2 horseradish peroxidase (HRP) was used for detection. Tetrapethyl benzidine (TMB) peroxidase substrate was added for signal development. The substrate reaction was stopped with phosphoric acid. The plates were read at an absorbance of 450 nm. […] The lower limit of quantitation in the assay was 0.47 ng/mL and the upper limit of quantification was 30 ng/mL. The minimum dilution for nude mouse serum samples was 1/10, resulting in a minimum quantifiable concentration of 4.7 ng/mL, with an indefinite upper limit. The minimum dilution for rat serum samples was 1/50, resulting in a minimum quantifiable concentration of 23.5 ng/mL, with an indefinite upper limit.
(§3) Mouse, Rat, and Cynomolgus Monkey PK data analysis. […] PK parameters were estimated using WinNonlin Enterprise Version 5.0.1 (Pharsight Corp., Mountain View, Calif.). The nominal dose administered for each group was used for modeling. Since a single concentration-time profile for mice was determined for each group, one estimate of each PK parameter was obtained and is reported, along with the standard error (SE) of the fit of each PK parameter. For rats and monkeys, PK parameters are reported as mean (+/−SD).
(§4) For IV administrations, a two-compartment elimination model with IV bolus input and first-order elimination was used to describe the observed data (WinNonlin Model 7). Concentrations were weighted using iterative reweighting (1/ŷ^2) and the Nelder-Mead minimization algorithm. The following equation was used to calculate concentration over time in Model 7: […]

[4] = Estimation of human PK by allometric scaling; design: species or system humans
Text: Estimation of Human PK Profile.
One approach was allometric scaling, which is based on the assumption that many physical and physiological parameters vary according to a mathematical function of body weight (BW)
Y=a×BWb • where Y is the variable of interest, a is the y-axis intercept, and b is slope.
The log plot of CL value versus body weight, repression, and R-squared values were generated by KaleidaGraph (version 3.6).

c-met = experiment: Binding to c-met in cynomolgus monkeys
IL-8 = experiment: Phase I study: serum IL-8 levels by electrochemiluminescence; assay type: in vivo, humans
Procedure: as §1
Serum IL-8 levels (diluted 1:5) were determined using an electrochemiluminescence based method as directed by the manufacturer (Meso Scale Discovery, Gaithersburg Md.; Cat. No. K111ANC).

[5] = PK studies in mice, rats, and cynomolgus monkeys (stated across species); assay type: in vivo; conditions: cynomolgus monkeys
Procedure: as §2, §3, §4

[6] = Athymic nude mouse, single IV dose
[7] = non-tumor-bearing mice, two-compartmental model

With “MetMAb: recombinant, humanized, monovalent (one-armed) monoclonal antibody directed against human c-met” the “Multiple Dose Safety Factor: Body Surface Area” value [1] was 105, the “Multiple Dose Safety Factor: Total Dose” value [1] was 325 and the “Single Dose Safety Factor: Body Surface Area” value [1] was 32. The “Single Dose Safety Factor: Single Dose” value [1] was 100, the “Change in serum HGF expression, two patients with highest baseline HGF” value (HGF; 24 h post drug treatment) was “significant decrease; also recorded: significantly decreased” and the “Change in serum HGF expression with MetMAb treatment, in general” value (HGF; Phase I patients) was “little or no increase”. For the same substance, the “Decrease of serum HGF levels post drug treatment, patient 11009” value (HGF; remained low for the duration of the study) was 70%, the “Highest non-severely toxic dose” value [2] was 100 mg/kg and the “MTC, 90% of values” (KP4 xenograft) was “below 110 μg/mL”. The “Median MTC (Minimum Tumorostatic Concentration)” value (KP4 xenograft) was “approximately 15 μg/mL”, the “Terminal Half-Life” value [3, 6] was 113 h and the V1 [3, 6] was 0.0488 L/kg. The Vss [3, 6] was 0.14 L/kg, the Serum disposition ([3]; non-tumor-bearing mice) was “biphasic and exhibited dose-proportionality” and the “CLd (inter-compartmental clearance)” value [3, 7] was 7.92 mL/h/kg. For the same substance, the “V2 (apparent peripheral volume of distribution)” value [3, 7] was 0.0907 L/kg, the “Predicted clearance in humans” value [4] was 0.417 mL/h/kg and the Binding to c-met (c-met) was “binds to c-met”. For the same substance, the “Reduction in circulating IL-8” value (IL-8; 24 h following treatment, subjects with baseline IL-8 >50 pg/ml) was over 50%, the “Change in serum IL8 following MetMAb infusions” value (IL-8; most patients with baseline serum IL8 above normal controls) was “decrease in serum IL8” and the “Change in IL-8 expression post-MetMAb treatment” value (IL-8; subjects with less than 50 pg/ml baseline IL-8) was “did not change significantly”. For the same substance, the Beta half-life [5] was 96 to 120 h.

Source: patent US20110262436A1, “TREATMENT METHOD” (Genentech, Inc., priority 2008, published 2011)
